The values that follow come from article PMC6234985 (Cell, 2018).

Where two headings read alike, the source gives them in different places.

In one data set the target is T1, Karyopherin-β2 (Kapβ2) (human, UniProt Q92973-2 1-890).
T1 sequence: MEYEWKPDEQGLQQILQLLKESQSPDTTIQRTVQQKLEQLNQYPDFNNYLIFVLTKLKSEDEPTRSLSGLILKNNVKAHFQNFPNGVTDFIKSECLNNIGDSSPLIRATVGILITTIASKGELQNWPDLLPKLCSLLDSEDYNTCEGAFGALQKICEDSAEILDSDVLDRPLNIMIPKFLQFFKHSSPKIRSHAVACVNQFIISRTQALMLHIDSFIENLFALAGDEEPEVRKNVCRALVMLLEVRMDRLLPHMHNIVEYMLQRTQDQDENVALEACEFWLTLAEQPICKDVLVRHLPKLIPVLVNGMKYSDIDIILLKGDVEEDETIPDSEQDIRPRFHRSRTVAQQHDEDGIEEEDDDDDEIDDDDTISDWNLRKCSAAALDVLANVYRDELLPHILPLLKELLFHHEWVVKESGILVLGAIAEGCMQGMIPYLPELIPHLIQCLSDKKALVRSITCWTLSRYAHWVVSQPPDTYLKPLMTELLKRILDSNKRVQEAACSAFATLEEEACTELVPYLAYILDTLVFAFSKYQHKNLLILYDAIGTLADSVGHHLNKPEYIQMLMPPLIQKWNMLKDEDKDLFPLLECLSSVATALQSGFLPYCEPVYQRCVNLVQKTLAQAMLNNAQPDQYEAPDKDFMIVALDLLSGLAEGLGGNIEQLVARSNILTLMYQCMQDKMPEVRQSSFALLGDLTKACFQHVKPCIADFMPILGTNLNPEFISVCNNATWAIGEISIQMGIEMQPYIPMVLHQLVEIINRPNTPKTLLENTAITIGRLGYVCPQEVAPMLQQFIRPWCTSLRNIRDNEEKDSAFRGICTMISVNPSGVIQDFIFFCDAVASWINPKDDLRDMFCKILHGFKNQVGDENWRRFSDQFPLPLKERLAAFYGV
Put plainly: ITC. (Isothermal titration calorimetry measures the heat released or taken up as one component is titrated into another.)

Another data set deals with GST-CRM1 (human, UniProt O14980 1-1071). The data set can be described thus: pull-down.
Data set [1] has as its target T2, MBP-FUS (UniProt P35637 1-526). The data set can be described thus: gel filtration co-elution. (SEC sorts molecules by how far they enter the pores of the column.)
The target of data set [2] is T3, FUS (full-length), MBP removed with Tev protease (UniProt P35637 1-526).
T3 sequence (looked up): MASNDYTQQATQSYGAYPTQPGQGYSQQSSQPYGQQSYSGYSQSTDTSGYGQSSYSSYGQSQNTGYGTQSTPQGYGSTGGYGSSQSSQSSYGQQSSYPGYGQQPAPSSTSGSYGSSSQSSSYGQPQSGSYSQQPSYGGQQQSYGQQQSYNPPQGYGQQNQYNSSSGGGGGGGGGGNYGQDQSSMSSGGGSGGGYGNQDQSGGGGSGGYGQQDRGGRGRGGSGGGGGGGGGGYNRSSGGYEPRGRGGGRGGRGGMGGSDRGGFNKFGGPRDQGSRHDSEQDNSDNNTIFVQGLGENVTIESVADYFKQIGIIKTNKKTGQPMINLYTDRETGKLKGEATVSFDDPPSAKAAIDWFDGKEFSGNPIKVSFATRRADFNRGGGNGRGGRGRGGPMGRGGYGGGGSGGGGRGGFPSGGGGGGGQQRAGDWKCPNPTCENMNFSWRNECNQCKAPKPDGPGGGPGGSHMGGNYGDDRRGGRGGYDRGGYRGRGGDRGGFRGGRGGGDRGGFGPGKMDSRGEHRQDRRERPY
The data set can be described thus: crystal structure.

The target of another data set is T4, FUS(456–526) (UniProt P35637 456-526).
T4 sequence (looked up): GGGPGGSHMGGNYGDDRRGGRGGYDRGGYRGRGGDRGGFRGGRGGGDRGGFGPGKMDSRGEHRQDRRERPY
Put plainly: crystal structure.

In the next data set the target is T5, FUS(371–526) (UniProt P35637 371-526).
T5 sequence (looked up): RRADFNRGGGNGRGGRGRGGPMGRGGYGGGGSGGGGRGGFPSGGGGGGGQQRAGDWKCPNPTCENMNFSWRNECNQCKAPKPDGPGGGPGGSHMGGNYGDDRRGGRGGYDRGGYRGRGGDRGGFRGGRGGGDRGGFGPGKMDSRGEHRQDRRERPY
The data set can be described thus: crystal structure.

The target of data set [3] is T2, MBP-FUS. The data set can be described thus: gel filtration co-elution. The source holds these as a separate data set.

Sequence of GST-CRM1 (O14980 whole entry): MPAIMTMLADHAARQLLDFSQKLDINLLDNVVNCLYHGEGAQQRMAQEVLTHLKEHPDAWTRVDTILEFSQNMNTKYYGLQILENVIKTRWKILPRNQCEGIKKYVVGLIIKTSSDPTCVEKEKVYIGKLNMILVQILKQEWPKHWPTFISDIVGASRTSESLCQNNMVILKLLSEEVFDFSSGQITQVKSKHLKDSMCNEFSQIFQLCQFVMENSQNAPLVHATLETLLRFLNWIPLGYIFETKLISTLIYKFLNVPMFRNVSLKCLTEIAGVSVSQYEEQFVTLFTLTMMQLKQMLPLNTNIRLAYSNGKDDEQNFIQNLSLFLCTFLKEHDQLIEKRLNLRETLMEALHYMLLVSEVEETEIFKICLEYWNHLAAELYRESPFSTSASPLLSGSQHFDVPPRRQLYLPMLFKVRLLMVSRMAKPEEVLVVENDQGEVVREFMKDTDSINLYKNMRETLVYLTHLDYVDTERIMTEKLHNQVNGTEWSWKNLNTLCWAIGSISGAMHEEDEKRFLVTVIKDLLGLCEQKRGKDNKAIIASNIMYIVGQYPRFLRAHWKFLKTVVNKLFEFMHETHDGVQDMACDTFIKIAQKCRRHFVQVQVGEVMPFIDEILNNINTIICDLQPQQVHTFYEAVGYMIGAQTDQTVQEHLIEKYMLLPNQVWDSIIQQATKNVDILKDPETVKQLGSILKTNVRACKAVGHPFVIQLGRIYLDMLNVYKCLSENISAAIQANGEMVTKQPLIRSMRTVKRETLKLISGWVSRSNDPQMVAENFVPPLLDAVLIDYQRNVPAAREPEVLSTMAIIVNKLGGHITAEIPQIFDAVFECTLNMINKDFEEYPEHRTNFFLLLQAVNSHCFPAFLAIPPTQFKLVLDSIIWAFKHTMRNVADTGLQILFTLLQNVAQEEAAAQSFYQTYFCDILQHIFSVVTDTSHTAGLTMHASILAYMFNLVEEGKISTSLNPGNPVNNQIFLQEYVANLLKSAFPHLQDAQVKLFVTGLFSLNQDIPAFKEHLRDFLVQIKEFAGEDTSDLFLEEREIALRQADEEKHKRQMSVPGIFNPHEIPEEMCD

B1: MBP-FUS(371–526) (domain or fragment, UniProt P35637 371-526, looked up)
chain: RRADFNRGGGNGRGGRGRGGPMGRGGYGGGGSGGGGRGGFPSGGGGGGGQQRAGDWKCPNPTCENMNFSWRNECNQCKAPKPDGPGGGPGGSHMGGNYGDDRRGGRGGYDRGGYRGRGGDRGGFRGGRGGGDRGGFGPGKMDSRGEHRQDRRERPY
Regarding B1, in the data set with Karyopherin-β2 (Kapβ2), the binding result is recorded as “binds”.

B2: MBP-FUS(NES) chimera (PY-NLS replaced with the NES from the NS2 protein of MVM virus) (other)
chain: MASNDYTQQATQSYGAYPTQPGQGYSQQSSQPYGQQSYSGYSQSTDTSGYGQSSYSSYGQSQNTGYGTQSTPQGYGSTGGYGSSQSSQSSYGQQSSYPGYGQQPAPSSTSGSYGSSSQSSSYGQPQSGSYSQQPSYGGQQQSYGQQQSYNPPQGYGQQNQYNSSSGGGGGGGGGGNYGQDQSSMSSGGGSGGGYGNQDQSGGGGSGGYGQQDRGGRGRGGSGGGGGGGGGGYNRSSGGYEPRGRGGGRGGRGGMGGSDRGGFNKFGGPRDQGSRHDSEQDNSDNNTIFVQGLGENVTIESVADYFKQIGIIKTNKKTGQPMINLYTDRETGKLKGEATVSFDDPPSAKAAIDWFDGKEFSGNPIKVSFATRRADFNRGGGNGRGGRGRGGPMGRGGYGGGGSGGGGRGGFPSGGGGGGGQQRAGDWKCPNPTCENMNFSWRNECNQCKAPKPDGPGGGPGGSHMGGNYGDDRRGGRGGYDRGGYRGRGGDRGGFRGGRGGYSTVDEMTKKFGTLTIH
In the case of B2, the binding result with GST-CRM1 is recorded as “binds”.

B3: MBP-FUS(453–526) (domain or fragment, UniProt P35637 453-526, looked up)
chain: DGPGGGPGGSHMGGNYGDDRRGGRGGYDRGGYRGRGGDRGGFRGGRGGGDRGGFGPGKMDSRGEHRQDRRERPY
B3: the binding result with Karyopherin-β2 (Kapβ2) is recorded as “binds”.
Take UUAGGGUUAGGGUUAGGGUUAGGG (structured_RNA) [TERRA RNA]: in the data set with MBP-FUS [1], the binding result is “binds”.

B4: Kapβ2Δloop (residues 337–367 replaced with a GGSGGSG linker) (natural protein, human)
chain: MEYEWKPDEQGLQQILQLLKESQSPDTTIQRTVQQKLEQLNQYPDFNNYLIFVLTKLKSEDEPTRSLSGLILKNNVKAHFQNFPNGVTDFIKSECLNNIGDSSPLIRATVGILITTIASKGELQNWPDLLPKLCSLLDSEDYNTCEGAFGALQKICEDSAEILDSDVLDRPLNIMIPKFLQFFKHSSPKIRSHAVACVNQFIISRTQALMLHIDSFIENLFALAGDEEPEVRKNVCRALVMLLEVRMDRLLPHMHNIVEYMLQRTQDQDENVALEACEFWLTLAEQPICKDVLVRHLPKLIPVLVNGMKYSDIDIILLKGDVEEDETIPDSEQDIRGGSGGSGDTISDWNLRKCSAAALDVLANVYRDELLPHILPLLKELLFHHEWVVKESGILVLGAIAEGCMQGMIPYLPELIPHLIQCLSDKKALVRSITCWTLSRYAHWVVSQPPDTYLKPLMTELLKRILDSNKRVQEAACSAFATLEEEACTELVPYLAYILDTLVFAFSKYQHKNLLILYDAIGTLADSVGHHLNKPEYIQMLMPPLIQKWNMLKDEDKDLFPLLECLSSVATALQSGFLPYCEPVYQRCVNLVQKTLAQAMLNNAQPDQYEAPDKDFMIVALDLLSGLAEGLGGNIEQLVARSNILTLMYQCMQDKMPEVRQSSFALLGDLTKACFQHVKPCIADFMPILGTNLNPEFISVCNNATWAIGEISIQMGIEMQPYIPMVLHQLVEIINRPNTPKTLLENTAITIGRLGYVCPQEVAPMLQQFIRPWCTSLRNIRDNEEKDSAFRGICTMISVNPSGVIQDFIFFCDAVASWINPKDDLRDMFCKILHGFKNQVGDENWRRFSDQFPLPLKERLAAFYGV
For the molecule B4, the binding result (in data set [2]; in the data set with FUS(456–526); in the data set with FUS(371–526)) was “binds” each time.
Consider AUUGAGGAGCAGCAGAGAAGUUGGAGUGAAGGCAGAGAGGGGUUAAGG (ssRNA) [prD (DNMT) RNA], for which, in the data set with MBP-FUS [3], the binding result was “binds”.
